The results in this text go back to US20210403582A1 (JACOBIO PHARMACEUTICALS, published 2021).

Test [1] addresses T1, human LIF protein (human, UniProt P15018 23-202).
T1 construct: Bought recombinant protein (Sino Biological / Yiqiao Shenzhou 14890-HNAH) in most assays; also called recombinant human LIF protein; rhLIF
The experiment in a line: competition ELISA: human LIF coated at 1 µg/mL, LIFR-Fc 0.6125 µg/mL added together with the antibody, A450. Here is the method: The recombinant human LIF protein was coated on the enzyme label plate at a concentration of 1 μg/mL, LIFR protein (expressed fusedly with human FC) at a concentration of 0.6125 μg/mL was added (50 μL/well), and the anti-human LIF antibodies 38E10E1C11, P36-033 and 38E10E1C11R which is recombinantly expressed by CHO cells (SEQ ID NOs: 41 and 43) at different concentrations simultaneously were added separately (50 μL/well) and incubated for 2 h at room temperature. After washed four times with PBST, incubated with HRP-labeled goat anti-mouse FC secondary antibody for 1 h at room temperature. Then the plates were washed four times with PBST and added with TMB coloured solution in for 10 minutes. The absorption value at 450 nm is quantitated using an enzyme-labelling measuring instrument, and the data was analyzed and plotted using Origin pro 9 software.

Another test deals with T2, human CNTF (human, UniProt P26441 1-200, limits assumed).
T2 sequence (looked up): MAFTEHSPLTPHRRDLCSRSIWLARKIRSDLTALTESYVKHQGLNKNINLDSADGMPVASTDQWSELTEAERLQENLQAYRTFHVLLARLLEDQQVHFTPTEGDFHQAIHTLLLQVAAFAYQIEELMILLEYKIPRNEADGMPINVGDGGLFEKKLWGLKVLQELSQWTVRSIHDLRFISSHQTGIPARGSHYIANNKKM
The experiment in a line: ELISA, human CNTF coated at 1 µg/mL, HRP goat anti-mouse Fab, A450. Here is the method: (§1) After washed four times with PBST, HRP-labeled goat anti-mouse Fab secondary antibodies were added and incubated at room temperature for 1 h. After washed four times with PBST, TMB colored solution was added and color developing for 10 min at room temperature. The absorption value at 450 nm was read by the enzyme maker. The data were analyzed and plotted using Origin pro 9 software.

In test [2] the target is T1, human LIF protein. Put plainly: cell-based or functional assay.
For a further test, the target named is human IL-6 (human, UniProt P05231 30-212, limits assumed). The experiment in a line: ELISA, human IL-6 coated at 1 µg/mL, HRP goat anti-mouse Fab, A450. The method, then:
as §1

The target of the next test is T3, human OSM (human, UniProt P13725 26-221, limits assumed).
T3 sequence (looked up): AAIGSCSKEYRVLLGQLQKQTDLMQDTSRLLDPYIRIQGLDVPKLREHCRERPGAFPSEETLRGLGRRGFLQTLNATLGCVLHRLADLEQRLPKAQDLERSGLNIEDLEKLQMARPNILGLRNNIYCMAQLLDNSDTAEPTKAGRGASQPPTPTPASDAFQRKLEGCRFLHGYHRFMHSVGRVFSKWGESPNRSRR
The experiment in a line: ELISA, human OSM coated at 1 µg/mL, HRP goat anti-mouse Fab, A450. Here is the method:
as §1

In test [3] the target is T1, human LIF protein. Put plainly: competition ELISA, LIF coated, competitor LIFR-Fc 0.6125 ug/mL detected with anti-human Fc.
Test [4] concerns the target T1, human LIF protein. Put plainly: ELISA, antigen coated 0.5 ug/ml, 293S supernatant heated 70 C 5 min, antibody 0.2 ug/mL. The method, then: (§2) Each well was coated with 100 μL of 0.5 μg/ml antigen and incubate overnight at 4° C., and the plates were washed three times with 300 μL of Wash Buffer. The plates were closed with 200 μL of Closure Buffer (2% bovine serum albumin) for 60 min at room temperature. The plates were washed three times with 300 μL of Wash Buffer. 100 μL of diluted anti-LIF antibody at different concentrations was added to each well and incubate for 1 hour at room temperature. The plates were washed 4 times with 300 μL of Wash Buffer. 100 μL of HRP-labeled goat anti-human Fc secondary antibody at a dilution of 1:5000 was added and incubate for 1 hour at room temperature. The plates were washed 6 times with 300 μL of Wash Buffer. 100 μL of H₂O₂-Amplx Color Development Solution was added for developing the color for 10 min at room temperature under dark conditions. The OD 450 value was read by an enzyme marker. Heat treatment: the expression medium was heated on the PCR machine at 70° C. for 5 min and then rapidly cooled to room temperature. Perform subsequent ELISA assays as above.

Test [5] deals with T1, human LIF protein. Put plainly: ELISA, antigen coated 0.5 ug/ml, 293S supernatant non-heated, antibody 0.2 ug/mL. The method, then:
as §2

Test [6] deals with T4, Mut3 heterozygous LIF protein (human LIF with residues 182-202 of …, UniProt P15018 23-201, limits assumed).
T4 construct: Secreted into the supernatant of transfected 293T cells; also called Mut3 protein
Put plainly: western blot of 293T culture supernatants, primary antibody 1 µg/mL, HRP anti-human Fc. Here is the method:
(§3) The supernatant of 293T cells transfected with human LIF full-length gene sequence, Mut3 and Mut4 protein sequences after 3 days of culture, and the negative control of 293T cell culture supernatant were taken, 5×SDS-PAGE loading buffer was added, and boiled for 10 minutes. Then 10 μL of sample was taken for SDS-PAGE electrophoresis, and then the electrophoretic bands were transferred to PVDF membrane for western blot detection. The primary antibody for detection was 38E huH3L2 or 38E huH3L4 antibody at a concentration of 1 μg/mL, and was incubated for 2 hours at room temperature. Then washed three times in PBST buffer and diluted HRP-labeled sheep anti-human Fc secondary antibody at a dilution ration of 1:3000 was added, incubated with the secondary antibody for 2 hours at room temperature, washed three times in PBST buffer and enhanced Chemiluminescent solution (Perice, item no. 34079) was added and incubated. An Amersham Imager 600 ultra-sensitive multifunctional imager was used for detection and photograph. […] The same results were obtained in the M1 cell proliferation assay, and the results were detailed in subfigure B in FIG. 22. Therefore, the epitope sequences recognized by the 38E huH3L2 and 38E huH3L4 antibodies were determined to be […] (SEQ ID NO: 61).

Test [7] deals with T5, Mut4 heterozygous LIF protein (human LIF with residues 166-202 of …, UniProt P15018 23-201, limits assumed).
T5 construct: Secreted into the supernatant of transfected 293T cells; also called Mut4 protein
The test is described as above. Here is the method: as §3

The target of test [8] is T1, human LIF protein. The experiment in a line: BLI (Gator), antibody on anti-human Fc biosensor, human LIF in solution. The method, then: The affinity of anti-LIF antibody to human LIF protein was determined using Gator. The anti-human LIF antibody was first diluted to 5 ug/mL with PBS and then added to A-F wells in second column of the 96-well plate (200 μL per well). […] PBS was added to A-F wells in the first and third columns (200 μL per well). The 96-well plates were placed into the instrument and detected with anti-human Fc biosensor.

The target in test [9] is T1, human LIF protein. Put plainly: ELISA, antigen coated 0.5 ug/ml, 293S supernatant heated 70 C 5 min, antibody 0.04 ug/mL. Here is the method:
as §2

The target of test [10] is T1, human LIF protein. The experiment in a line: ELISA, antigen coated 0.5 ug/ml, 293S supernatant non-heated, antibody 1 ug/mL. Here is the method: as §2
In test [11] the target is T1, human LIF protein. Put plainly: ELISA, antigen coated 0.5 ug/ml, 293S supernatant heated 70 C 5 min, antibody 1 ug/mL. Here is the method: as §2
In test [12] the target is T1, human LIF protein. Put plainly: ELISA, antigen coated 0.5 ug/ml, 293S supernatant non-heated, antibody 0.04 ug/mL. The method, then: as §2

Chain of human IL-6 (P05231 30-212 limits assumed): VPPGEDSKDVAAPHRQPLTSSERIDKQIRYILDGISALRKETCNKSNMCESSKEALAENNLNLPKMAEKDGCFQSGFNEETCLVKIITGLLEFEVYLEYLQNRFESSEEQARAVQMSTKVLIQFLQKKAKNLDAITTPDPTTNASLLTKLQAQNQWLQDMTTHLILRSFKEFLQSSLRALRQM

B1: 38E10E1C11R (38E10E1C11 antibody recombinantly expressed by CHO cells) (antibody, mouse IgG1, kappa)
heavy: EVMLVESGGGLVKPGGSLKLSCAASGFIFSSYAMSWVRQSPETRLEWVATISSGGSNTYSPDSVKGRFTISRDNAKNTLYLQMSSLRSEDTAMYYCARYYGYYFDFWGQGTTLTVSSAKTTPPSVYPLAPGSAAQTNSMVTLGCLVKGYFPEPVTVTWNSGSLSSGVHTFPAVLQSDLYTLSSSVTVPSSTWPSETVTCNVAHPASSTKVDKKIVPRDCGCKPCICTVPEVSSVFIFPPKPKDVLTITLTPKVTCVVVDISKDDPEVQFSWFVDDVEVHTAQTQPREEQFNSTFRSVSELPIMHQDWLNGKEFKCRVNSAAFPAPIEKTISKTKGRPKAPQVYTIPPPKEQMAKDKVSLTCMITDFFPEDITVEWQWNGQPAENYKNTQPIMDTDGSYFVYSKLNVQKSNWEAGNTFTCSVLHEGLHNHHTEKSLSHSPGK
light: DIHMTQSPASLSASVGETVTITCRASENIYSYLAWYQQKQGKSPQLLVYNAKTLAEGVPSRFSGSGSGTQFSLKINSLQPEDFGSYYCQHHYVTPLTFGAGTKLELKRADAAPTVSIFPPSSEQLTSGGASVVCFLNNFYPKDINVKWKIDGSERQNGVLNSWTDQDSKDSTYSMSSTLTLTKDEYERHNSYTCEATHKTSTSPIVKSFNRNEC
For the molecule B1, the “IC50 (read off the curve)” value in the test with human LIF protein [1] was about 0.2 µg/mL.

B2: 38E HuH3L2-m (antibody, mouse IgG1, kappa)
heavy: EVMLVESGGGLVQPGGSLRLSCAASGFIFSSYAMSWVRQAPETRLEWVATISSGGSNTYSPDTVKGRFTISRDNSKNTLYLQMNSLRAEDTAMYYCARYYGYYFDFWGQGTLLTVSSAKTTPPSVYPLAPGSAAQTNSMVTLGCLVKGYFPEPVTVTWNSGSLSSGVHTFPAVLQSDLYTLSSSVTVPSSTWPSETVTCNVAHPASSTKVDKKIVPRDCGCKPCICTVPEVSSVFIFPPKPKDVLTITLTPKVTCVVVDISKDDPEVQFSWFVDDVEVHTAQTQPREEQFNSTFRSVSELPIMHQDWLNGKEFKCRVNSAAFPAPIEKTISKTKGRPKAPQVYTIPPPKEQMAKDKVSLTCMITDFFPEDITVEWQWNGQPAENYKNTQPIMDTDGSYFVYSKLNVQKSNWEAGNTFTCSVLHEGLHNHHTEKSLSHSPGK
light: DIHMTQSPSSLSASVGDRVTITCRASENIYSYLAWYQQKPGKSPKLLVYNAKTLAEGVPSRFSGSGSGTDFTLTISSLQPEDFATYYCQHHYVTPLTFGQGTKLEIKRADAAPTVSIFPPSSEQLTSGGASVVCFLNNFYPKDINVKWKIDGSERQNGVLNSWTDQDSKDSTYSMSSTLTLTKDEYERHNSYTCEATHKTSTSPIVKSFNRNEC
notes: Humanized variable regions of 38E HuH3L2 on mouse IgG1 / kappa constant regions
For the molecule B2, the binding result in the test with human CNTF, with human IL-6 and with human OSM was “no binding (tested: 25 ug/ml)” in each case. Also, the “EC50, reversal of proliferation inhibition of M1 cells (CCK-8)” value with human LIF protein [2] is 8.93 µg/mL. This molecule registered an IC50 with human LIF protein [3] of 0.145 µg/mL.

B3: 38E HuH3L4-m (antibody, mouse IgG1, kappa)
heavy: EVMLVESGGGLVQPGGSLRLSCAASGFIFSSYAMSWVRQAPETRLEWVATISSGGSNTYSPDTVKGRFTISRDNSKNTLYLQMNSLRAEDTAMYYCARYYGYYFDFWGQGTLLTVSSAKTTPPSVYPLAPGSAAQTNSMVTLGCLVKGYFPEPVTVTWNSGSLSSGVHTFPAVLQSDLYTLSSSVTVPSSTWPSETVTCNVAHPASSTKVDKKIVPRDCGCKPCICTVPEVSSVFIFPPKPKDVLTITLTPKVTCVVVDISKDDPEVQFSWFVDDVEVHTAQTQPREEQFNSTFRSVSELPIMHQDWLNGKEFKCRVNSAAFPAPIEKTISKTKGRPKAPQVYTIPPPKEQMAKDKVSLTCMITDFFPEDITVEWQWNGQPAENYKNTQPIMDTDGSYFVYSKLNVQKSNWEAGNTFTCSVLHEGLHNHHTEKSLSHSPGK
light: DIHMTQSPSSLSASVGDRVTITCRASENIYSYLAWYQQKQGKSPQLLVYNAKTLAEGVPSRFSGSGSGTQFTLKINSLQPEDFATYYCQHHYVTPLTFGQGTKLEIKRADAAPTVSIFPPSSEQLTSGGASVVCFLNNFYPKDINVKWKIDGSERQNGVLNSWTDQDSKDSTYSMSSTLTLTKDEYERHNSYTCEATHKTSTSPIVKSFNRNEC
notes: Humanized variable regions of 38E HuH3L4 on mouse IgG1 / kappa constant regions
Regarding B3, the binding result with human CNTF, in the test with human IL-6 and with human OSM was “no binding (tested: 25 ug/ml)” in each case. In addition, the “EC50, reversal of proliferation inhibition of M1 cells (CCK-8)” value with human LIF protein [2] was 6.52 µg/mL. Besides, in the test with human LIF protein [3], the IC50 stood at 0.103 µg/mL.

B4: 38E HuH3L2 (antibody, human IgG1, kappa, N297A)
heavy: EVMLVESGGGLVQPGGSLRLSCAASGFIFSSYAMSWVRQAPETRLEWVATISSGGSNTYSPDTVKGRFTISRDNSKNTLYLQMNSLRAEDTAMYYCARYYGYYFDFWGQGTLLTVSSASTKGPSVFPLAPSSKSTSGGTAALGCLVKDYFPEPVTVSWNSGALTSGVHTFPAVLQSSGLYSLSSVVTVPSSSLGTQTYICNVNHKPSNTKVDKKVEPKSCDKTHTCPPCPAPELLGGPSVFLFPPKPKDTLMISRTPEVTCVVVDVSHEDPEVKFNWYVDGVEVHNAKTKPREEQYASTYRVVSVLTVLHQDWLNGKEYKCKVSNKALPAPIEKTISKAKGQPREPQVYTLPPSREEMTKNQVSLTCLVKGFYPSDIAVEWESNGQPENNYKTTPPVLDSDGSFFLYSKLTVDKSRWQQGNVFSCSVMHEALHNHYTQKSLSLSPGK
light: DIHMTQSPSSLSASVGDRVTITCRASENIYSYLAWYQQKPGKSPKLLVYNAKTLAEGVPSRFSGSGSGTDFTLTISSLQPEDFATYYCQHHYVTPLTFGQGTKLEIKRTVAAPSVFIFPPSDEQLKSGTASVVCLLNNFYPREAKVQWKVDNALQSGNSQESVTEQDSKDSTYSLSSTLTLSKADYEKHKVYACEVTHQGLSSPVTKSFNRGEC
notes: Humanized, human IgG1 / kappa
As for B4, the ELISA signal with human LIF protein [4] was 8780; in the test with human LIF protein [5], 10600; with human LIF protein [9], 5060; with human LIF protein [10], 11300; in the test with human LIF protein [11] it was 9450; in the test with human LIF protein [12] it was 6600. In addition, the values for the binding result in test [6] and in test [7] were “binds” and “no binding (tested: primary antibody 1 µg/mL)”, respectively. In the test with human LIF protein [8], this molecule returned an equilibrium dissociation constant (Kd) of 0.0538 nM. Besides, the koff in the test with human LIF protein [8] amounted to 3.39e-05 s⁻¹. Moreover, the kon with human LIF protein [8] was determined as 631000 M⁻¹ s⁻¹.
